Test results taken from patent US20260275280A1, “DIRECTED DIFFERENTIATION PROTOCOLS TO DERIVE BONE FIDE SPINAL SENSORY INTERNEURONS” (THE REGENTS OF THE UNIVERSITY OF CALIFORNIA, priority 2022, published 2026).
“Also recorded” adds a separate entry of the source.

Columns and labels:
Assay type in all cases: cell-based, mouse
[1] = system: mESCs-derived NMPs / NPCs; assay: Bulk RNA-Seq differential expression and qRT-PCR after RA or RA+BMP4 treatment; settings: AGN193109 added in 10 molar excess with the RA
Experimental: Bulk-RNA sequencing and data processing: Total cell lysate was obtained in buffer RLT (Qiagen) at different time points from three independent differentiations (biological replicates) conducted parallelly. RNA extraction was performed using RNeasy mini kit (Qiagen) and the quality was determined using Agilent Technologies 2100 Bioanalyzer and only samples with a RIN score >8.0 were sequenced. Stranded libraries were constructed using Universal plus mRNA sequencing kit (NuGEN) and sequenced onto 2 lanes of NovaseqS1 to generate 30 million reads/sample. Obtained reads were aligned to the latest mouse reference genome (mm10) using the STAR spliced read aligner. Pearson correlation and principal component analysis (PCA) was performed to determine the similarities among the samples and replicates. Differentially expressed genes were identified using DESeq and EdgeR package on R platform. The candidate genes were selected using cutoff false discovery rate (FDR <0.05) and log fold change (>2). Differentially expressed gene lists were further subjected to Enrichr, Metascape (Zhou et al., 2019) and DAVID functional annotation tools to identify enriched gene ontology (GO) categories.
(§1) Quantitative (a) RT-PCR analysis: RNA was isolated with RNeasy Mini Kit (Qiagen, cat no. 74104), and converted to cDNA using Superscript IV First Strand Synthesis kit (Thermo Fisher Scientific). qRT-PCR was performed using SYBR Green PCR Master Mix (Applied Biosystems) on Roche 480 Lightcycler (Roche). The relative fold expression was calculated using 2-AACt method of comparing the expression of the target gene with that of the housekeeping gene glyceraldehyde 3-phosphate dehydrogenase (Gapdh). All experiments were repeated at least 2-3 times (technical replicates) from at least two independent differentiations (biological replicates), and data is represented as mean±SEM.
We took advantage of the directed differentiation protocols to investigate the unresolved mechanisms by which RA and BMP direct dI fate specification. To further validate the use of a stem cell model, we first assessed the genetic basis of the fate decisions mediated by RA signaling. During the 24 hr pulse of RA at day 3, Pax3 levels gradually increase, while T expression concomitantly declines (FIG. 12A). […] To identify the transcriptional changes occurring during this first commitment step, we performed bulk RNA-Seq at day 3 (NMP state), day 3.25 (early transcriptional response to RA) and day 4 (dP state1) (FIG. 11B).
We hypothesized that the addition of BMP4 to NPCs in dP state1, directs them to a more dorsal dP state, i.e. dP state2 (FIG. 11A). To define the transcriptional changes occurring after BMP4 addition, we performed bulk RNA-Seq at day 4 (dP state1), day 4.25 (early transcriptional response to RA+BMP4) and at day 5 (dP state2) (FIG. 4A). […] 78 genes, out of 411, were common between both time points (FIGS. 4B, 13B). Focusing on these common genes, we identified enriched functional processes using GO analyses. The GO terms included the BMP signaling pathway (FIG. 4C, Table 3), confirming that the analysis identified BMP responsive genes.

Wnt/β-catenin signaling = assay: Inhibition of Wnt/β-catenin signaling during dI differentiation (IHC and RT-qPCR at day 9)
Experimental: (§2) The mouse ESC line, MM13, was routinely maintained in ES cell media (DMEM+20% FBS) with 100u/ml of mouse leukocyte inducing factor (LIF). […] To prepare cells for the differentiation, ESC colonies were dissociated with 0.25% trypsin and plated on gelatin coated plates at 1:10 dilution to reduce MEF transfer. Cells cultured on gelatin coated plates and allowed to proliferate for 1-2 days. To initiate differentiation, cells were plated on 0.1% gelatin coated 24-well CellBIND dishes (Corning) at 20,000 cells/ml density in 0.5 ml/well N2/B27 medium that contains 10 ng/ml basic fibroblast growth factor (bFGF). The N2/B27 medium contains 1:1 portions of Advanced Dulbecco's modified Eagle Media (DMEM) F12 (Hyclone) and Neurobasal media (Thermo Fisher Scientific) supplemented with 0.5×N2, 1×B27 supplement (with Vitamin A), 2 mM L-glutamine, 0.1 mM 2-mercaptoethanol (ME), and 1% BSA. On day 1, small colonies of cells can be observed attached to the bottom of the wells. On day 2, cells were supplemented with 10 ng/ml bFGF and 5 μM CHIR99021 for 24 hours to induce a neuromesodermal identity (Gouti et al., 2014). On day 3, media was changed as follows: for protocol 1, cells were exposed to 100 nM RA for 48 hrs. For protocol 2, 10 ng/ml human recombinant BMP4 (Thermo Fisher Scientific) was added concomitantly with 100 nM RA (RA+BMP4) for 48 hrs. For protocol 3, cells were exposed to 100 nM RA for 24 hrs, followed by a pulse of RA+BMP4 for another 24 hours. To induce terminal differentiation in all three conditions, the medium containing growth factors was replaced with basic N2/B27 medium at day 5, and cell allowed to differentiate to day 9. At the end of the differentiation, the cultures were fixed for immunohistochemical analysis or lysed to obtain RNA for RNA-Seq or quantitative reverse transcriptase PCR analysis.
Immunohistochemistry: For 2d differentiations, adherent cultures were first washed with 1×PBS and fixed with fresh cold 4% PFA for 10 minutes in the well. Following fixation, cultures were washed twice with 1×PBS to remove any remaining PFA. Cells were blocked with 1×PBS with 1% heat inactivated horse serum for 1 hour and primary antibodies are added in the blocking solution for an overnight incubation at 4C. Following washes, species appropriate secondary antibodies (Jackson Immuno Research Laboratories) were added in 1× PBT (PBS+0.1% […]) for 1 hr. The cultures were then washed with 1× PBT to remove traces of secondary antibodies and counterstained with DAPI to stain nuclei. Plates were then imaged on Zeiss LSM800 inverted confocal microscope at 10× magnification.
as §1
To assess the role of canonical Wnt signaling in dI fate specification, we added endo-IWR1 (IWR1e), a small molecule inhibitor which blocks p-catenin function (Chen et al., 2009) to dPs from day 4-6 (FIG. 5A). By day 9, the RA+BMP4 condition robustly induces dlis-dI3s (FIG. 5F-51, 5N-5P).

[2] = system: mESCs derived spinal NPCs; assay: Sufficiency of Wnt ligands or CHIR for dI fates (RT-qPCR at day 9); settings: for identity of the BMP4-mediated dI fates (Lhx2, Foxd3, IsI2): RA+BMP4 protocol, Wnts 100 ng/ml or CHIR 5 μM for 24 hrs at day 5; for induction of BMP4 dependent dI fates (Lhx2, Foxd3, IsI1): added with RA at day 4 for 24 hrs, Wnts 100 ng/ml, CHIR 5 μM
Experimental: as §2, §1
We assessed these models, first by determining the effect of canonical Wnts (Wnt1, Wnt2, and Wnt3a), a non-canonical Wnt (Wnt9b) and a small molecule Wnt agonist (CHIR99021) on dI identity in the RA±BMP4 protocols. When Wnts were added in combination with RA, they were unable to induce the dorsal-most dIs by day 9 (FIG. 14A). […] Thus, Wnts are not sufficient to direct dI fate identity.

[3] = inhibitor added to RA+BMP4 (protocol 3) from day 4, 48 hours, day 9

| Molecule | identity of the BMP4-mediated dI fates (Lhx2, Foxd3, IsI2) [2] | induction of BMP4 dependent dI fates (Lhx2, Foxd3, IsI1) [2] | other results |
| --- | --- | --- | --- |
| Cc1ccc(C2=CCC(C)(C)c3ccc(C#Cc4ccc(C(=O)O)cc4)cc32)cc1 [AGN193109] |  |  | upregulation of the RA-induced genes [1]: not upregulated |
| O=C(Nc1cccc2cccnc12)c1ccc(N2C(=O)[C@@H]3[C@H](C2=O)[C@@H]2C=C[C@H]3C2)cc1 [IWR1e] |  |  | dI1 and dI2 differentiation (Wnt/β-catenin signaling; [3]): loss of dI1s and dI2s; also recorded: dramatic reduction in the dI1 and dI2 populations; also recorded: most strongly suppresses the differentiation of the BMP4-dependent dI1/dI2s; dI3 differentiation (Wnt/β-catenin signaling; [3]): dI3 differentiation was less affected; also recorded: modest increase in dI3s; also recorded: more modest effect on dI3s; dI4, dI5, dI6 fates (Wnt/β-catenin signaling; [3]): no suppression of Pax2+dI4/dI6 and Lmx1b+dI5 fates; also recorded: concomitant increases in dI4, dI5 and dI6s; also recorded: increase in the expression of dI4-dI6 specific genes; dP markers Pax3, Pax7, Olig3 (Wnt/β-catenin signaling; inhibitor added to RA+BMP4 condition): did not erode Pax3+pan-dorsal identity or Pax7 expression, but nevertheless did suppress Olig3; also recorded: prevents both the suppression of Pax7+dPs and induction of Olig3+dPs |
| Wnt1: human recombinant Wnt1, canonical Wnt (protein, UniProt P04628 28-370, looked up) Proto-oncogene Wnt-1: ANSSGRWWGIVNVASSTNLLTDSKSLQLVLEPSLQLLSRKQRRLIRQNPGILHSVSGGLQSAVRECKWQFRNRRWNCPTAPGPHLFGKIVNRGCRETAFIFAITSAGVTHSVARSCSEGSIESCTCDYRRRGPGGPDWHWGGCSDNIDFGRLFGREFVDSGEKGRDLRFLMNLHNNEAGRTTVFSEMRQECKCHGMSGSCTVRTCWMRLPTLRAVGDVLRDRFDGASRVLYGNRGSNRASRAELLRLEPEDPAHKPPSPHDLVYFEKSPNFCTYSGRLGTAGTAGRACNSSSPALDGCELLCCGRGHRTRTQRVTERCNCTFHWCCHVSCRNCTHTRVLHECL | no significant effect | neither canonical Wnts (Wnt1, Wnt2, Wnt3a, Wnt4, all at 100 ng/ml) nor a non-canonical Wnt ligand (Wnt9b) induce the BMP4 dependent dI fates |  |
| Wnt2: human recombinant Wnt2, canonical Wnt (protein, UniProt P09544 26-360, looked up) Protein Wnt-2: SWWYMRATGGSSRVMCDNVPGLVSSQRQLCHRHPDVMRAISQGVAEWTAECQHQFRQHRWNCNTLDRDHSLFGRVLLRSSRESAFVYAISSAGVVFAITRACSQGEVKSCSCDPKKMGSAKDSKGIFDWGGCSDNIDYGIKFARAFVDAKERKGKDARALMNLHNNRAGRKAVKRFLKQECKCHGVSGSCTLRTCWLAMADFRKTGDYLWRKYNGAIQVVMNQDGTGFTVANERFKKPTKNDLVYFENSPDYCIRDREAGSLGTAGRVCNLTSRGMDSCEVMCCGRGYDTSHVTRMTKCGCKFHWCCAVRCQDCLEALDVHTCKAPKNADWTTAT | no significant effect | neither canonical Wnts (Wnt1, Wnt2, Wnt3a, Wnt4, all at 100 ng/ml) nor a non-canonical Wnt ligand (Wnt9b) induce the BMP4 dependent dI fates |  |
| Wnt3a: human recombinant Wnt3a, canonical Wnt (protein, UniProt P56704 19-352, looked up) Protein Wnt-3a: SYPIWWSLAVGPQYSSLGSQPILCASIPGLVPKQLRFCRNYVEIMPSVAEGIKIGIQECQHQFRGRRWNCTTVHDSLAIFGPVLDKATRESAFVHAIASAGVAFAVTRSCAEGTAAICGCSSRHQGSPGKGWKWGGCSEDIEFGGMVSREFADARENRPDARSAMNRHNNEAGRQAIASHMHLKCKCHGLSGSCEVKTCWWSQPDFRAIGDFLKDKYDSASEMVVEKHRESRGWVETLRPRYTYFKVPTERDLVYYEASPNFCEPNPETGSFGTRDRTCNVSSHGIDGCDLLCCGRGHNARAERRREKCRCVFHWCCYVSCQECTRVYDVHTCK | no significant effect | neither canonical Wnts (Wnt1, Wnt2, Wnt3a, Wnt4, all at 100 ng/ml) nor a non-canonical Wnt ligand (Wnt9b) induce the BMP4 dependent dI fates |  |
| Wnt4: mouse recombinant Wnt4 (protein, UniProt P22724 23-351, looked up) Protein Wnt-4: SNWLYLAKLSSVGSISEEETCEKLKGLIQRQVQMCKRNLEVMDSVRRGAQLAIEECQYQFRNRRWNCSTLDSLPVFGKVVTQGTREAAFVYAISSAGVAFAVTRACSSGELEKCGCDRTVHGVSPQGFQWSGCSDNIAYGVAFSQSFVDVRERSKGASSSRALMNLHNNEAGRKAILTHMRVECKCHGVSGSCEVKTCWRAVPPFRQVGHALKEKFDGATEVEPRRVGSSRALVPRNAQFKPHTDEDLVYLEPSPDFCEQDIRSGVLGTRGRTCNKTSKAIDGCELLCCGRGFHTAQVELAERCGCRFHWCCFVKCRQCQRLVEMHTCR | no significant effect | neither canonical Wnts (Wnt1, Wnt2, Wnt3a, Wnt4, all at 100 ng/ml) nor a non-canonical Wnt ligand (Wnt9b) induce the BMP4 dependent dI fates |  |
| Wnt9b: mouse recombinant Wnt9b, non-canonical Wnt ligand (protein, UniProt O35468 24-359, looked up) Protein Wnt-9b: AAYFGLTGREVLTPFPGLGTAAAPAQAGAHLKQCDLLKLSRRQKQLCRREPGLAETLRDAAHLGLLECQFQFRQERWNCSLEGRTGLLQRGFKETAFLYAVSAAALTHALARACSAGRMERCTCDDSPGLESRQAWQWGVCGDNLKYSTKFLSNFLGPKRGSKDLRARADAHNTHVGIKAVKSGLRTTCKCHGVSGSCAVRTCWKQLSPFRETGQVLKLRYDTAVKVSSATNEALGRLELWAPAKPGGPAKGLAPRPGDLVYMEDSPSFCRPSKYSPGTAGRVCSRDSSCSSLCCGRGYDTQSRMVVFSCHCQVQWCCYVECQQCAQQELVYTCKR | no significant effect | neither canonical Wnts (Wnt1, Wnt2, Wnt3a, Wnt4, all at 100 ng/ml) nor a non-canonical Wnt ligand (Wnt9b) induce the BMP4 dependent dI fates |  |
